Experimental data from US20230190870A1, “Method for Treating Lysosomal Storage Diseases with Histatin Peptides” (THE BOARD OF TRUSTEES OF THE UNIVERSITY OF ILLINOIS, priority 2020, published 2023).
Square brackets hold non-standard residues; d marks the D form. Ends that are not written are not given here. Peptide text beside a SMILES is read from it. pS = N[C@@H](COP(=O)(O)O)C(=O)O

Key:
[1] = biological target: T1, Synthetic TMEM97 (144-176) (Homo sapiens, UniProt Q5BJF2); assay: Surface plasmon resonance, immobilized synthetic TMEM97 (144-176); assay type: binding; conditions: SPR
T1 construct: made in house; host or cells: chemical solid-phase synthesis (Fmoc, Wang resin)
Experimental: (§1) Surface Plasmon Resonance (SPR). Recombinant full-length TMEM97 (also called MAC30, from HEK293 cells) and GST-TMEM97 (108-176, recombinant GST-C terminal from wheat germ) proteins were purchased from OriGene (Rockville, Md.) and Abnova (Taipei City, Taiwan), respectively. Three peptides, TMEM97 (108-176), TMEM97 (108-143) and TMEM97 (144-176), were synthesized. All proteins and peptides were initially prepared in HBS buffer containing 10 mM HEPES, pH 7.4, 150 mM NaCl, and 0.05% surfactant P20. The CM5 sensor surface was first activated by 1-ethyl-3-(3-dimethylaminopropyl) carbodiimide hydrochloride (EDC)/N-hydroxy succinimide (NHS) mixture using a Biacore T200 or Biacore 8K instrument (GE Healthcare). […] Flow channels 1 and 3 were used as references.
(§2) The three synthesized peptides were diluted to 50 μg/mL in 10 mM sodium acetate at pH 4.0 and immobilized to flow channels 2, 3 and 4, respectively, on another sensor chip. The unmodified surfaces on a flow channel 1 were used as a reference control. Histatin solutions with a series of increasing concentrations (0.78-25 μM at 2-fold dilution) were applied to all four channels at a 30 μL/minute flow rate at 25° C. The data were double-referenced with reference channel and zero concentration responses, and reference subtracted sensorgrams were fitted with 1 to 1 Langmuir kinetic model using a Biacore T200 evaluation software V3.0 or Insight evaluation software. The equilibrium dissociation constants ([…]) were determined from two rate constants (KD=kd/ka).
(§3) To determine more precisely which segment of TMEM97 is necessary for binding of Hst1, multiple synthetic fragments of TMEM97 were generated (Table 6) and binding to Hst1 was tested using SPR. […] Smaller fragments of the C-terminal of TMEM97 were then constructed to represent the (predicted) luminal (108-143) and cytoplasmic (144-176) exposed segments of the C-terminus of TMEM97 based on modeling experiments previously described. […] SPR results for Hst1 were confirmed using ITC as an orthogonal analytical method.
(§4) To determine the region(s) of Hst1 that mediate binding to TMEM97, SPR testing was performed with various Hst1 fragments and either recombinant TMEM97 (GST-tagged, wheat-germ derived, C-terminal fragment TMEM97 (108-176)) or synthesized TMEM97 (TMEM97 (108-176), TMEM97 (108-143) and TMEM97 (144-176)).

GST-TMEM97 (108-176) = biological target: T2, GST-TMEM97 (108-176) (Homo sapiens, UniProt Q5BJF2); assay: Surface plasmon resonance, immobilized GST-TMEM97 (108-176); assay type: binding; conditions: SPR
T2 construct: GST-TMEM97 (108-176, recombinant GST-C terminal from wheat germ); purchased Abnova (Taipei City, Taiwan); host or cells: wheat germ (cell-free)
Experimental: as §1, §2, §4

[2] = biological target: T3, Synthetic TMEM97 (108-176) (Homo sapiens, UniProt Q5BJF2); assay: Surface plasmon resonance, immobilized synthetic TMEM97 (108-176); assay type: binding; conditions: SPR
T3 construct: Three peptides, TMEM97 (108-176), TMEM97 (108-143) and TMEM97 (144-176), were synthesized; made in house; host or cells: chemical solid-phase synthesis (Fmoc, Wang resin)
Experimental: as §1, §2, §3, §4

[3] = biological target: T4, full-length recombinant TMEM97 (HEK293 cells) (Homo sapiens, UniProt Q5BJF2); assay: Surface plasmon resonance, immobilized full-length TMEM97; assay type: binding; conditions: SPR
T4 construct: Recombinant full-length TMEM97 (also called MAC30, from HEK293 cells); purchased OriGene (Rockville, Md.); host or cells: HEK293 cells
Experimental: The three synthesized peptides were diluted to 50 μg/mL in 10 mM sodium acetate at pH 4.0 and immobilized to flow channels 2, 3 and 4, respectively, on another sensor chip. The unmodified surfaces on a flow channel 1 were used as a reference control. […] The data were double-referenced with reference channel and zero concentration responses, and reference subtracted sensorgrams were fitted with 1 to 1 Langmuir kinetic model using a Biacore T200 evaluation software V3.0 or Insight evaluation software. The equilibrium dissociation constants (K&) were determined from two rate constants (KD=kd/ka).

HCE cells = assay: Immunofluorescence imaging of internalization and localization; assay type: cell-based, human; conditions: 24 hours after exposure
Experimental: Immunofluorescence Imaging. HCE cells were seeded on glass coverslips (Fisher Scientific Co.; Pittsburgh, Pa.) within a 6-well plate at 3×10^5 (cells/well) seeding density. […] HCE cells were then fixed in 3.7% paraformaldehyde, permeabilized with phosphate-buffered saline (PBS) containing 0.2% TRITON™ X-100 for 5 minutes, and washed three times for 5 minutes each time in PBS. For blocking, cells were and incubated at room temperature for 30 minutes with 5% bovine serum albumin (BSA) and 5% normal goat serum in PBS. For the Endoplasmic Reticulum (ER) staining, a Cytopainter ER staining kit (Abcam; Cambridge, Mass.) was used, following the manufacturer's instructions. After washing with 1×Assay buffer, cells were incubated with Green Detection Reagent to cover the monolayer of cells. For the detection of Hst1 and TMEM97, mouse anti-Hst1 antibody (Abcam; Cambridge, Mass.), rabbit primary antibody against Hst1 (Mybiosource; San Diego, Calif.), and rabbit anti-TMEM97 antibody (Novus Bio.; Littleton, Colo.) were used. Cells were incubated overnight at 4° C. with primary antibodies, washed three times for 5 minutes each time in PBS before incubation with secondary antibodies for 30 minutes. Cells were then counterstained with 1 μg/mL 4′,6-diamidino-2-phenylindole (DAPI) solution in PBS for 3 minutes, then washed three times with PBS containing 0.05% TRITON™ X-100 for 5 minutes each time, twice with PBS for 5 minutes each time, and once with distilled water for 10 seconds. The cells were mounted in Fluoro gel with Tris buffer (Electron Microscopy Sciences; Hatfield, Pa.) and observed under a confocal microscope (Zeiss LSM 710 Confocal Microscope; Oberkochen, Germany) using a 40×objective. Fluorescent dye sold under the tradename ALEXA FLUOR® 488 NHS Ester (Molecular Probes; Carlsbad, Calif.) was used for making Alexa-488 coupled synthetic Hst1.
Transfection/Knock-Down of TMEM97. Sub-confluent monolayers of HCE cells in grown in 35-mm six-well plates were transfected with reaction mixtures composed of 100 pmol of small interfering RNA (siRNA) to TMEM97 (Santa Cruz Biotechnology; Dallas, Tex.) for 48 hours and 5 μL of transfection reagent sold under the tradename LIPOFECTAMINE® 2000 (Invitrogen; Carlsbad, Calif.) in culture medium sold under the tradename OPTI-MEMO media (Gibco Life Technologies; Grand Island, N.Y.). Complexes were incubated for 20 minutes at 24° C. and then added to cells at 37° C. Incubation was continued for 24 to 48 hours at 37° C. in 5% CO2. Knock-down (KD) of TMEM97 was confirmed by western blot analysis using a rabbit anti-TMEM97 antibody (Novus Bio.; Littleton, Colo.). […]

[4] = biological target: T5, Synthetic TMEM97 (108-143) (Homo sapiens, UniProt Q5BJF2); assay: Surface plasmon resonance, immobilized synthetic TMEM97 (108-143); assay type: binding; conditions: SPR
T5 construct: made in house; host or cells: chemical solid-phase synthesis (Fmoc, Wang resin)
Experimental: as §1, §2, §3, §4

[5] = Circular dichroism secondary structure analysis (DichroWeb); assay type: physicochemical
Experimental: Circular Dichroism (CD). CD analysis was performed on a Jasco 815 CD spectrometer at room temperature. TMEM97 (108-176) and Hst1 full-length peptides were prepared as 10 mM stock in 25% DMSO and water, respectively, and diluted to 0.15 mg/mL final concentration in 10 mM […] buffer. A total of 400 μL of each sample was added into a 1 mm quartz sample cell, and CD spectra were recorded from 260 nm to 190 nm wavelength. Data points were measure in 0.5 nm wavelength step at a scanning speed of 100 nm/minute. A total of five spectra were acquired for each sample and averaged. […] buffer without peptide was used as a control curve, which was subsequently subtracted from the CD spectra of peptide samples. The resulting buffer control subtracted CD intensity row data in millidegrees were submitted to DichroWeb and fitted with multiple embedded models and converted to mean residue ellipticity.
Subsequently, the hypothesis that interaction between Hst1 and TMEM97 could affect the structure of each protein was tested. Also, the secondary structure of Hst1 and TMEM97 was tested in solution using CD measurements. It was noted that Hst1 alone is mostly disordered (over 50%) with some degree of β-strand, while TMEM97 (108-176) contains some α-helical and β-strand regions with ˜34% disordered regions. According to CD spectra comparison, there seemed to be more secondary structures formed upon Hst1 binding to TMEM97 (108-176).

[6] = biological target: T6, Synthetic TMEM97 (144-176) peptide; assay: SPR
T6 construct: Synthetic peptide; also called (predicted) cytoplasmic segment
T6 peptide: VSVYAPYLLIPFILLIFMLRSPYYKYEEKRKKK

[7] = biological target: T7, Synthetic TMEM97 (108-176) peptide; assay: SPR
T7 construct: Synthetic peptide; also called full C-terminal synthetic TMEM97
T7 peptide: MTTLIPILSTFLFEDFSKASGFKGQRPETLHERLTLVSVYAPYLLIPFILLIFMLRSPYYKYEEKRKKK

[8] = biological target: T8, GST-TMEM97 (108-176), recombinant from wheat germ (Abnova) (UniProt Q5BJF2 108-176); assay: SPR
T8 construct: not shown: GST tag

[9] = CD, fraction of secondary structure

T4 sequence (Q5BJF2 whole entry): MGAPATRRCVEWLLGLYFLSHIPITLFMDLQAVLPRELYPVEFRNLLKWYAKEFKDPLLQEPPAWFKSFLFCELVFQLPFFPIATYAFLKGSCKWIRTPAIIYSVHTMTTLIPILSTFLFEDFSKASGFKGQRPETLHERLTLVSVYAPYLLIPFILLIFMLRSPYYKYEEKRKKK

Hst1(20-32): Hst1 fragment, residues 20-32 (SHREFPFYGDYGS)
KD [1]: No binding

N=C(N)NCCC[C@H](NC(=O)[C@H](Cc1ccc(O)cc1)NC(=O)CNC(=O)[C@H](Cc1c[nH]cn1)NC(=O)[C@H](Cc1c[nH]cn1)NC(=O)[C@H](CCCNC(=N)N)NC(=O)[C@H](CCCCN)NC(=O)[C@H](CCC(=O)O)NC(=O)[C@H](Cc1c[nH]cn1)NC(=O)[C@H](COP(=O)(O)O)NC(=O)[C@@H](N)CC(=O)O)C(=O)N[C@@H](CCCNC(=N)N)C(=O)N[C@@H](CCCCN)C(=O)N[C@@H](Cc1ccccc1)C(=O)N[C@@H](Cc1c[nH]cn1)C(=O)N[C@@H](CCC(=O)O)C(=O)N[C@@H](CCCCN)C(=O)N[C@@H](Cc1c[nH]cn1)C(=O)N[C@@H](Cc1c[nH]cn1)C(=O)O [Hst1(1-19)] (H-D[pS]HEKRHHGYRRKFHEKHH-OH)
% Rmax (GST-TMEM97 (108-176)): (% Rmax = 32%)
% Rmax [2]: (% Rmax = 19%)
% Rmax [1]: (% Rmax = 16%)

Hst1(15-38): Hst1 fragment, residues 15-38 (HEKHHSHREFPFYGDYGSNYLYDN)
KD (GST-TMEM97 (108-176)): No binding
KD [2]: No binding
KD [1]: No binding

HYHKFHRYYDPGSNLYKEHNHGFHHGYKDEFRREpSRDS (HYHKFHRYYDPGSNLYKEHNHGFHHGYKDEFRRE[pS]RDS) [reference compound]
% Rmax (GST-TMEM97 (108-176)): 5%
KD (GST-TMEM97 (108-176)): No binding
% Rmax [3]: 8%
KD ([3]; 25° C., 1 to 1 Langmuir kinetic model): No binding

fluorescent dye-coupled synthetic Hst1: synthetic Hst1 coupled with ALEXA FLUOR 488 NHS Ester (D[pS]HEKRHHGYRRKFHEKHHSHREFPFYGDYGSNYLYDN; also: coupled with Alexa Fluor 488 NHS ester, site not given here; UniProt P15515 20-57, looked up)
internalization into cells (HCE cells): internalized into HCE cells

Hst1(1-14): Hst1 fragment, residues 1-14 (DSHEKRHHGYRRKF)
KD / binding [4]: No binding
KD [2]: No binding
KD [1]: No binding

N=C(N)NCCC[C@H](NC(=O)[C@H](Cc1ccc(O)cc1)NC(=O)CNC(=O)[C@H](Cc1c[nH]cn1)NC(=O)[C@H](Cc1c[nH]cn1)NC(=O)[C@H](CCCNC(=N)N)NC(=O)[C@H](CCCCN)NC(=O)[C@H](CCC(=O)O)NC(=O)[C@H](Cc1c[nH]cn1)NC(=O)[C@H](COP(=O)(O)O)NC(=O)[C@@H](N)CC(=O)O)C(=O)N[C@@H](CCCNC(=N)N)C(=O)N[C@@H](CCCCN)C(=O)N[C@@H](Cc1ccccc1)C(=O)N[C@@H](Cc1c[nH]cn1)C(=O)N[C@@H](CCC(=O)O)C(=O)N[C@@H](CCCCN)C(=O)N[C@@H](Cc1c[nH]cn1)C(=O)N[C@@H](Cc1c[nH]cn1)C(=O)N[C@@H](CO)C(=O)N[C@@H](Cc1c[nH]cn1)C(=O)N[C@@H](CCCNC(=N)N)C(=O)N[C@@H](CCC(=O)O)C(=O)N[C@@H](Cc1ccccc1)C(=O)N1CCC[C@H]1C(=O)N[C@@H](Cc1ccccc1)C(=O)O [Hst1(1-26)] (H-D[pS]HEKRHHGYRRKFHEKHHSHREFPF-OH)
% Rmax (GST-TMEM97 (108-176)): (% Rmax = 24%)
KD / binding [4]: No binding
% Rmax [2]: (% Rmax = 8%)
% Rmax [1]: (% Rmax = 4%)

B1: MTTLIPILSTFLFEDFSKASGFKGQRPETLHERLTLVSVYAPYLLIPFILLIFMLRSPYYKYEEKRKKK (peptide)
chain: T7 peptide
disordered regions ([5]; CD in solution): ~34%
Helix [5, 9]: 0.14
Strand [5, 9]: 0.31
Turns [5, 9]: 0.21
Unordered [5, 9]: 0.34

DSHEKRHHGYRRKFHEKHH (not fully specified (residue 2); ends and bridges not checked) [Hst1(1-19)]
Kd [6]: 8.8 µM
Kd [7]: 12.7 µM
Kd [8]: 3.6 µM

SHREFPFYGDYGS (Fragment of Hst1) [Hst1(20-32)]
binding result [6]: no binding

HEKHHSHREFPFYGDYGSNYLYDN (Fragment of Hst1) [Hst1(15-38)]
binding result [6]: no binding
binding result [7]: no binding
